From article PMC12065894 (Nature Communications, 2025) come the findings set out here.

This series concerns the molecule itself. In words: crystal structure; contact between molecules of the crystal lattice: the cleaved zymogen activation motif of one protease molecule lies in the substrate binding cleft of a neighbouring one; crystals grown at 18 °C.

B1: dasTMPRSS11D (active, autocleaved TMPRSS11D with DDDDK zymogen activation motif) (enzyme)
chain 1: ANWLINECGAGPDLITDDDDK
chain 2: not shown
notes: also called active dasTMPRSS11D; Human Airway Trypsin-like protease
In the case of B1, the binding result was “binds”.
